The values below are quoted from earlier work in PMC4965143.

The target in series [1] is PGC-1α coactivator peptide (Homo sapiens) (UniProt Q9UBK2).
Series [2] shares this target. This is another data set of the same source.

Where two headings read alike, the source gives them in different places.

UniProt Q9UBK2, sequence (Q9UBK2 whole entry): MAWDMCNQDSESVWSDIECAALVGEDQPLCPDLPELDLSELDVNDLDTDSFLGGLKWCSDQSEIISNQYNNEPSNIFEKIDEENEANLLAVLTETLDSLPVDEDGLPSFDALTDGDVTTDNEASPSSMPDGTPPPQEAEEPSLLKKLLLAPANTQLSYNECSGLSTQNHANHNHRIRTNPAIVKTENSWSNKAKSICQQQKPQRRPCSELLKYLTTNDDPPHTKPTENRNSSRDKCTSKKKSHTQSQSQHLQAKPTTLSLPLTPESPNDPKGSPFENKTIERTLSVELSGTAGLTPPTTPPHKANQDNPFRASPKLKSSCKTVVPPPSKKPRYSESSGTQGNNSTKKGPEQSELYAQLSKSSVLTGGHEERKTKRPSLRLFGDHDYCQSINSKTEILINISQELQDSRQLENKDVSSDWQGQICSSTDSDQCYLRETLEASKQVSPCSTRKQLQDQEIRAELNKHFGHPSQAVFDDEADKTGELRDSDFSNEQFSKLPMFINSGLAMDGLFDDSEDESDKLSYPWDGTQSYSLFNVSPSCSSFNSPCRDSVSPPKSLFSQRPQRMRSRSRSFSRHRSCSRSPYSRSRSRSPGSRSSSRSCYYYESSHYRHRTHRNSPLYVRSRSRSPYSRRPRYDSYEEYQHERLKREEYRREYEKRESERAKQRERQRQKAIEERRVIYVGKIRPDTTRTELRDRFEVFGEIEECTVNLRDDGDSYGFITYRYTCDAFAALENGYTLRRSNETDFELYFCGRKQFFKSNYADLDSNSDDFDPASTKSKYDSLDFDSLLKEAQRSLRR

The Kd is the equilibrium constant for the complex coming apart. In the case of SF-1 LBD (from UniProt Q13285), the Kd is 8.5 µM in series [1] and 6 µM in series [2].
